Source: patent publication US20250353906A1 (FLAGSHIP PIONEERING INNOVATIONS VII, published 2025)

T1: recombinant His-tagged human IL-10Ra (Creative Biomart) (human, UniProt Q13651 22-235)
T1 construct: His tag; also called IL-10 receptor alpha
T1 sequence (looked up): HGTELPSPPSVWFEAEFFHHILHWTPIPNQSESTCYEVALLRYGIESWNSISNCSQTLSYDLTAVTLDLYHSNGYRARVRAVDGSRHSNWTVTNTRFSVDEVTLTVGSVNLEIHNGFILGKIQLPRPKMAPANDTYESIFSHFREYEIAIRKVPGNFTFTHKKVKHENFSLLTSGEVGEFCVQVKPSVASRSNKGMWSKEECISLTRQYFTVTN

T2: DSG1 stably expressed on HEK-BLUE IL-10 cells (HEKBLUE IL-10/DSG1) (human, UniProt Q02413 50-1049)
T2 sequence (looked up): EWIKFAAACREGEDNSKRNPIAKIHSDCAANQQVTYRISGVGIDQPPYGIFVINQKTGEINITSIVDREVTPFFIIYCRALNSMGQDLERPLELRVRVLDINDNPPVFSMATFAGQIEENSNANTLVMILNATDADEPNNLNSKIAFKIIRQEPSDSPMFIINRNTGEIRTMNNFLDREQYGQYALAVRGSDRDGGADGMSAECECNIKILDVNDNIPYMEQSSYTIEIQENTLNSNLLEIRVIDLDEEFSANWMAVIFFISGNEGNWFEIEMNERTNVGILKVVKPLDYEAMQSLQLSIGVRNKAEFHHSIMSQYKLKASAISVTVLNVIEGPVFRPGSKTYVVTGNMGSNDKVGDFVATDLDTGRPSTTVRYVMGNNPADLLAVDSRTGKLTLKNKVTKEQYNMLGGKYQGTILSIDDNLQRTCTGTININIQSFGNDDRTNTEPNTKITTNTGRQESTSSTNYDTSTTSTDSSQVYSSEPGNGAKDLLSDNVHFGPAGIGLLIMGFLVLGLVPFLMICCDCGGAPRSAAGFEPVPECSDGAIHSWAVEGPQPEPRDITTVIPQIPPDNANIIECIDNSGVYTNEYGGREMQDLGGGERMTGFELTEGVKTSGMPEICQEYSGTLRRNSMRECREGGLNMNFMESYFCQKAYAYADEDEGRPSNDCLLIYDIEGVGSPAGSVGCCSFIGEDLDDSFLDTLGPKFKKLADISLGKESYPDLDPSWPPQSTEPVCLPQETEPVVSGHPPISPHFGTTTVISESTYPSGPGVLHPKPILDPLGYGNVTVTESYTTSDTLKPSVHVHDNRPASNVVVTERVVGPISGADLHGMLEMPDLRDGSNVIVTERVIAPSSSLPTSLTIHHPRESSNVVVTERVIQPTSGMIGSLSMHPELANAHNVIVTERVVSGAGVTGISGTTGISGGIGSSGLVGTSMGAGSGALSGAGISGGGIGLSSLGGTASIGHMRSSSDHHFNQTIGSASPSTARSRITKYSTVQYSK


Key:
[1] = molecular target: T1, recombinant His-tagged human IL-10Ra …; assay: ELISA on coated His-tagged human IL-10Ra, serial dilution from 30 µg/mL
Experimental: To test the binding of the IL-10/anti-DSG1 ANDbodies to IL-10 receptor alpha (IL-10Ra) by ELISA, recombinant His-tagged human IL-10Ra (Creative Biomart) was coated on NUNC-IMMUNO™ MAXISORP™ ELISA plates at 1 μg/mL concentration overnight. The next day, coated antigen was removed and the wells were blocked with 1% IgG-free BSA followed by incubation with 11 three-fold serially diluted anti-IL-10/anti-DSG1 ANDbodies (as provided above) with a starting concentration of 30 μg/mL. Bound antibody was detected with peroxidase-conjugated anti-human IgG antibodies with TMB and acid stop reagents.

[2] = molecular target: T3, recombinant His-tagged murine RAGE protein (ab276858 from Abcam) (mouse, UniProt Q62151 23-340, limits assumed); assay: BLI, ANDbody on anti-human IgG Fc biosensors, murine RAGE at 150 nM then murine Notch2 NRR at 150 nM
T3 construct: His tag; also called murine RAGE antigen
Experimental: To test simultaneous dual antigen binding of the Notch2/RAGE ANDbodies by BLI, PRO051, PRO052 and PRO053, along with monovalent parental antibody controls were immobilized on anti-human IgG Fc biosensors and dipped into the recombinant His-tagged murine RAGE protein at 150 nM, followed by a second association step into wells containing recombinant murine Notch2 NRR at 150 nM to measure dual antigen binding. The dissociation rate was then measured by dipping the biosensors into buffer.

[3] = molecular target: T2, DSG1 stably expressed on HEK-BLUE IL-10 …; assay: cell-based or functional assay

T3 sequence (Q62151 23-340 limits assumed): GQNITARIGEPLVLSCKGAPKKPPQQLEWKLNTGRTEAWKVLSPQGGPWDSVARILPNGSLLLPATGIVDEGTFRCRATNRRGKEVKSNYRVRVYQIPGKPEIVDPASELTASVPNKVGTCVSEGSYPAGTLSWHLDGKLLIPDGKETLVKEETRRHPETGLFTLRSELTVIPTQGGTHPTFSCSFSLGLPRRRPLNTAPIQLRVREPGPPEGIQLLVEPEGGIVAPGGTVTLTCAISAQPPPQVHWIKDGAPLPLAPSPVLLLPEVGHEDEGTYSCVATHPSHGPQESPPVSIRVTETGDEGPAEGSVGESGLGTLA

Binder	binding result [2]	also measured
IL-10 Fc (Creative Biomart IL10-326H) (Fc fusion, human, UniProt P22301 19-178, looked up, Bought reagent; also called positive control IL-10 Fc; hIL-10 Fc fusion; not shown: human Fc domain) SPGQGTQSENSCTHFPGNLPNMLRDLRDAFSRVKTFFQMKDQLDNLLLKESLLEDFKGYLGCQALSEMIQFYLEEVMPQAENQDPDIKAHVNSLGENLKTLRLRLRRCHRFLPCENKSKAVEQVKNAFNKLQEKGIYKAMSEFDIFINYIEAYMTMKIRN	–	binding result [1]: binds
PRO052 (bispecific antibody, Made by controlled Fab arm exchange from PRO035 (K409R) and PRO002 (F405L); also called Notch2/RAGE ANDbody PRO052; copies: 1 + 1 + 1 + 1) heavy 1: not shown light 1: DIQMTQSPSSLSASVGDRVTITCRASQSNRRFLAWYQQKPGKAPKLLIYGASSRASGVPSRFSGSGSGTDFTLTISSLQPEDFATYYCQQYYISPLTFGQGTKVEIKRTVAAPSVFIFPPSDEQLKSGTASVVCLLNNFYPREAKVQWKVDNALQSGNSQESVTEQDSKDSTYSLSSTLTLSKADYEKHKVYACEVTHQGLSSPVTKSFNRGEC heavy 2: not shown light 2: DIQMTQSPSSLSASVGDRVTITCRASQDVGIYVNWFQQKPGKAPRRLIYRATNLADGVPSRFSGSRSGTDFTLTISSLQPEDFATYYCLEFDEHPLTFGGGTKVEIKRTVAAPSVFIFPPSDEQLKSGTASVVCLLNNFYPREAKVQWKVDNALQSGNSQESVTEQDSKDSTYSLSSTLTLSKADYEKHKVYACEVTHQGLSSPVTKSFNRGEC	binds	–
PRO058 (other) heavy: EVQLVESGGGLVQPGRSLRLSCAASGFTFDDYAMHWVRQAPGKGLEWVSGISWNSGSIDYADSVKGRFTISRDNAKNSLYLQMNSLRVEDTALYYCAKDGSRVFGVGGGFDFWGQGTMVTVSSASTKGPSVFPLAPSSKSTSGGTAALGCLVKDYFPEPVTVSWNSGALTSGVHTFPAVLQSSGLYSLSSVVTVPSSSLGTQTYICNVNHKPSNTKVDKKVEPKSCDKTHTCPPCPAPEAAGGPSVFLFPPKPKDTLMISRTPEVTCVVVDVSHEDPEVKFNWYVDGVEVHNAKTKPREEQYNSTYRVVSVLTVLHQDWLNGKEYKCKVSNKALGAPIEKTISKAKGQPREPQVYTLPPSRDELTKNQVKLTCLVKGFYPSDIAVEWESNGQPENNYKTTPPVLDSDGSFFLYSSLTVDKSRWQQGNVFSCSVMHEALHNHYTQKSLSLSPG light: not shown SPGQGTQSENSCTHFPGNLPNMLRDLRDAFSRVKTFFQMKDQLDNLLLKESLLEDFKGYLGCQALSEMIQFYLEEVMPQAENQDPDIKAHVNSLGENLKTLRLRLRRCHRFLPCENGGGSGGKSKAVEQVKNAFNKLQEKGIYKAMSEFDIFINYIEAYMTMKIRNGGGGSGGGGSDKTHTCPPCPAPEAAGGPSVFLFPPKPKDTLMISRTPEVTCVVVDVSHEDPEVKFNWYVDGVEVHNAKTKPREEQYNSTYRVVSVLTVLHQDWLNGKEYKCKVSNKALGAPIEKTISKAKGQPREPQVYTLPPSRDELTKNQVSLTCLVSGFYPSDIAVEWESNGQPENNYKTTPPVLDSDGSFKLYSKLTVDKSRWQQGNVFSCSVMHEALHNRFTQKSLSLSPG	–	increase in potency of IL-10 signaling (SEAP, HEK-BLUE IL-10 cells) when DSG1 was expressed on the target cells [3]: ~15 fold

The next lines start with results.

binding result [2]	Binder	also measured
binds	PRO053 (bispecific antibody, Made by controlled Fab arm exchange from PRO036 (K409R) and PRO002 (F405L); also called Notch2/RAGE ANDbody PRO053; copies: 1 + 1 + 1 + 1) heavy 1: not shown light 1: DIQMTQSPSSLSASVGDRVTITCRASQSVRSFLAWYQQKPGKAPKLLIYRASIRASGVPSRFSGSGSGTDFTLTISSLQPEDFATYYCQQYYISPWTFGQGTKVEIKRTVAAPSVFIFPPSDEQLKSGTASVVCLLNNFYPREAKVQWKVDNALQSGNSQESVTEQDSKDSTYSLSSTLTLSKADYEKHKVYACEVTHQGLSSPVTKSFNRGEC heavy 2: not shown light 2: DIQMTQSPSSLSASVGDRVTITCRASQDVGIYVNWFQQKPGKAPRRLIYRATNLADGVPSRFSGSRSGTDFTLTISSLQPEDFATYYCLEFDEHPLTFGGGTKVEIKRTVAAPSVFIFPPSDEQLKSGTASVVCLLNNFYPREAKVQWKVDNALQSGNSQESVTEQDSKDSTYSLSSTLTLSKADYEKHKVYACEVTHQGLSSPVTKSFNRGEC	–
binds	PRO051 (bispecific antibody, Made by controlled Fab arm exchange from PRO034 (K409R) and PRO002 (F405L); Signal peptides left out as for the parents; also called Notch2/RAGE ANDbody PRO051; RAGE-targeting ANDbody; copies: 1 + 1 + 1 + 1) heavy 1: not shown light 1: not shown heavy 2: not shown light 2: DIQMTQSPSSLSASVGDRVTITCRASQDVGIYVNWFQQKPGKAPRRLIYRATNLADGVPSRFSGSRSGTDFTLTISSLQPEDFATYYCLEFDEHPLTFGGGTKVEIKRTVAAPSVFIFPPSDEQLKSGTASVVCLLNNFYPREAKVQWKVDNALQSGNSQESVTEQDSKDSTYSLSSTLTLSKADYEKHKVYACEVTHQGLSSPVTKSFNRGEC	–
